Experimental findings from PMC6071955 are described below.

Where “and” joins values, the source holds several entries; their conditions need not be identical. Equal values may be shown once. Read-outs that look alike come from different tables or passages of the source.

Assay [1] concerns the target FusC(E83A) mutant, catalytically inactive (Pectobacterium (species and strain of the cloned gene not stated)). In words: ITC; ferredoxin (200 uM) titrated in 10 ul steps, 27 titrations, into the chamber with FusC(E83A) (20 uM); 20 mM HEPES, 50 mM NaCl pH 7.5; MicroCal VP-ITC; 299.15 K (Table 2); parameters from the average of the two best of three reactions. (In general: In ITC the heat of successive injections is recorded.)

The target is the same in assay [2]. Described as above. This is another data set of the same source.

Consider “ferredoxin from the plant Arabidopsis thaliana (from UniProt P16972 53-145) (natural protein)”, for which, in assay [1], the Ka was 452000 M⁻¹ and 805000 M⁻¹ and 629000 M⁻¹; the Kd (as a rule, the equilibrium constant for the complex coming apart) was 1.24 µM and 1.73 µM and 2.21 µM; the dH was -5.2 kcal/mol and -4.91 kcal/mol and -5.06 kcal/mol; the stoichiometry N (usually a count of units in the complex or per binding partner) was 1.12 and 1.06 and 1.09. In addition, in assay [2], the Kd was 1.9 µM.
